This assay has as its target T1, GST-Flag-SASPase 28 kDa recombinant protein (human, UniProt Q53RT3 85-343).
T1 construct: Skin aspartic acid protease, amino acids 1-259 of SASPase 28, corresponding to amino acids 85-343 of SASPase 37 (Q53RT3); Expression vector pEB9; also called GST-SASPase 28; 28 kDa SASPase; source: E. coli BL21, purified (glutathione resin); not shown: GST, N-terminal, kept; Flag, N-terminal, kept
T1 sequence (looked up): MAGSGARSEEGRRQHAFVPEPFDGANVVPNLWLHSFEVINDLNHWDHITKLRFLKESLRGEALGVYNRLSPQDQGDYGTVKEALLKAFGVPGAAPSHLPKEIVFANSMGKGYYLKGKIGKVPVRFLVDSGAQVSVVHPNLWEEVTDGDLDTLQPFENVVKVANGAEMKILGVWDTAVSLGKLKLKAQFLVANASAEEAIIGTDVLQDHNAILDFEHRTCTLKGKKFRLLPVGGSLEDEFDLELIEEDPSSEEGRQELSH
The experiment in a line: SPR; Biacore T200, 25°C, HBS-EP+; goat anti-GST on CM5 captures GST-Flag-SASPase 28 (1 μM, flow cell 2) and GST (flow cell 1); analyte MBP-HA-FLG2S100 at 0-6 μM, control MBP-HA at 3 and 6 μM; 1:1 Langmuir fit. The settings on record: both partners purified.

For one molecule, Kd, koff and kon results are on record in publication PMC7241785, “Filaggrin and filaggrin 2 processing are linked together through skin aspartic acid protease activation” (PLoS ONE, 2020).

B1: MBP-HA FLG2 S100 (aa 2-95) (domain or fragment, human, UniProt Q5D862 2-95, looked up)
chain: TDLLRSVVTVIDVFYKYTKQDGECGTLSKGELKELLEKELHPVLKNPDDPDTVDVIMHMLDRDHDRRLDFTEFLLMIFKLTMACNKVLSKEYCK
notes: Filaggrin 2, amino acids 2-95 containing the S100 domain; Expression vector pEB7; also called MBP-HA FLG2 (aa 2-95); source: E. coli BL21, purified (amylose resin); not shown: MBP, N-terminal, kept; HA, N-terminal, kept
Turning to B1, the Kd came to 488 nM, the koff worked out at 0.00226 s⁻¹ and the kon worked out at 4630 M⁻¹ s⁻¹.
